Results on 1 protein are retold here after article PMC8861115, “Characterization and structural analyses of a novel glycosyltransferase acting on the β-1,2-glucosidic linkages” (The Journal of Biological Chemistry, 2022).

This series deals with the molecule itself. In words: SEC; Superdex 200 10/300 GL, 0.5 mg in 500 μl loaded, 5 mM MOPS pH 7.5, 100 mM ammonium sulfate, 1 mM DTT; calibrated with standard proteins.

B1: IALB_1185 protein from Ignavibacterium album (IaSGT), wild type, recombinant (enzyme)
chain: MKPHNSEKYFVKNGQPHFLISGEVHYFRINPKLWRNHLQLLKQTGADTVSTYIPWDWHEIEEDDFDFEGKTHPARNLIRFIKLCKEENLDLIVKPGPYILAEYENQGLPSWLLKKLSKNAFALDENGNVISPDLVSYLSDEFLEYTFKWYDKVMPIISKHQKEHYGPITMMQLCNEIGVFQWLSGKSDYNPKVINLYKEFIIQRYKTIEKLNSVYSTNYNSFDDLKAPSGKIKLRSDYCAYFDFHLFFREYYNKYISILKNKIRSFGINIKLTHNIPGWIYGNASELPMLISTYSEIMKNHPDIIFGLDHIPEFVSFRNAHSDLACNKILEAMQPEAPVWAAEFQAGTREHHVKAYAKDLETFYIASLAHGIKGFNYYMFSQGINPEGKGFYGKTFYFQTALDAASNKLALYDSIKKVNRFIRKEQKDLLRTNVNSEICVGFYKPYFFTELISSQLLKEKKLNVEELGLYIDPRFLREEILFNGLLRGLQTLNYNYDVVDLENCDLKSLTAYKQLWITSAEFMDAETQNLLSEFVLNGGNLILYPAVPTLDNYLNRCEILKNNFGIEFITKDSSHKVSAFGIEDVFTAFSKKQIYNDTNSKPIAFTQENEICGIRKKIGKGELTILGFAFGYTSDEHLELIDKLVKLNKIKRELFVSDKDIQFVVRENNKSRYIFFLNYHNERKTFNYRKSSELKKKKSEEISIAPFSYKVIKENK
notes: IALB_1185 protein (GH35), Ignavibacterium album DSM19864, gene ialb_1185 amplified from genomic DNA and inserted into the NdeI and XhoI sites of pET30a(+); domains in the structure: TIM barrel 6-432, Rossmann fold 438-648, Ig-like 653-716; theoretical molecular mass of the recombinant protein 84,709.883; Surmise: cloning into NdeI/XhoI of pET30a(+) would give a C-terminal His6 tag; A …
B1: the “stoichiometry N” value is 2.

As usually defined, the stoichiometry N is a count of units in the complex or per binding partner.
